Data: PMC12259267 (2025)

Legend:
recombinant GFP–N-Myc = biological target: T1, recombinant GFP–N-Myc (UniProt P04198 1-464); experiment: MST
T1 chain: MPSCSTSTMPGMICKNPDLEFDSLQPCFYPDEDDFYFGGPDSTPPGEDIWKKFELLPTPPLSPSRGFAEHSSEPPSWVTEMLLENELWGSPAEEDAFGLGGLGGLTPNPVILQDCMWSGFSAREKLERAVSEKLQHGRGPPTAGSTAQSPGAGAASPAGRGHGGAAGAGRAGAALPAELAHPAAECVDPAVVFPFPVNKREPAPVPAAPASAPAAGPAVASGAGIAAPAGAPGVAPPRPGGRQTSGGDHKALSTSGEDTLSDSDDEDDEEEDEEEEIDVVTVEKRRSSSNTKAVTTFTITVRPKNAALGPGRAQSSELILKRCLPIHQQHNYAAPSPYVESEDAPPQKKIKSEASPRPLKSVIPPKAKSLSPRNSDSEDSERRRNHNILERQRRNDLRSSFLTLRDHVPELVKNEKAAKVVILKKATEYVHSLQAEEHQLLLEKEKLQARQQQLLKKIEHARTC

recombinant GFP–C-Myc = recombinant GFP–C-Myc (UniProt P01106 1-454); experiment: MST
recombinant GFP–C-Myc, sequence (P01106 whole entry): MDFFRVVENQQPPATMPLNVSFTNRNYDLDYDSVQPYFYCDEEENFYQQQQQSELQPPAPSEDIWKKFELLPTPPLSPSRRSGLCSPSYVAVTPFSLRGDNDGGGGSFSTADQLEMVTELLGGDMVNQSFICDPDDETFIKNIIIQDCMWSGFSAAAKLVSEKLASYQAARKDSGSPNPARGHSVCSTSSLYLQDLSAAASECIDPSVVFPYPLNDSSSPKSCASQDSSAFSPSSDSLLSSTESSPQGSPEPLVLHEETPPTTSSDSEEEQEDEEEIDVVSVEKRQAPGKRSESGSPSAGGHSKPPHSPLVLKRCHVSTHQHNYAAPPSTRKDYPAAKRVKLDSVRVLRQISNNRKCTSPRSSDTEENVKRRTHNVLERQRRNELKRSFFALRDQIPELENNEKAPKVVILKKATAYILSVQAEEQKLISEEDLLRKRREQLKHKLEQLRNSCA

EC50 (recombinant GFP–N-Myc): 0.0983 nM | EC50 (recombinant GFP–C-Myc): 2.54 nM
B1: KLHL37-His recombinant protein (natural protein)
chain: MSVSVHENRKSRASSGSINIYLFHKSSYADSVLTHLNLLRQQRLFTDVLLHAGNRTFPCHRAVLAACSRYFEAMFSGGLKESQDSEVNFDNSIHPEVLELLLDYAYSSRVIINEENAESLLEAGDMLEFQDIRDACAEFLEKNLHPTNCLGMLLLSDAHQCTKLYELSWRMCLSNFQTIRKNEDFLQLPQDMVVQLLSSEELETEDERLVYESAINWISYDLKKRYCYLPELLQTVRLALLPAIYLMENVAMEELITKQRKSKEIVEEAIRCKLKILQNDGVVTSLCARPRKTGHALFLLGGQTFMCDKLYLVDQKAKEIIPKADIPSPRKEFSACAIGCKVYITGGRGSENGVSKDVWVYDTLHEEWSKAAPMLVARFGHGSAELKHCLYVVGGHTAATGCLPASPSVSLKQVEHYDPTINKWTMVAPLREGVSNAAVVSAKLKLFAFGGTSVSHDKLPKVQCYDQCENRWTVPATCPQPWRYTAAAVLGNQIFIMGGDTEFSACSAYKFNSETYQWTKVGDVTAKRMSCHAVASGNKLYVVGGYFGIQRCKTLDCYDPTLDVWNSITTVPYSLIPTAFVSTWKHLPS
